Earlier results on 4 compounds are cited in article PMC4501269 (Biochemistry, 2011).

Like-named read-outs stand apart in the source and are kept apart here. Some results are limits rather than exact numbers.

Data set [1] addresses SRC-1 (Homo sapiens) (UniProt Q15788).
Data set [2] has the same target. The source holds these as a separate data set.
For data set [3] the target is unchanged. Description: fluorescence polarization. (Polarisation of emitted light reports the rotation of a fluorescent probe.)
Data set [4] deals with SRC-2 (Homo sapiens) (UniProt Q15596). Description: fluorescence cross-correlation spectroscopy.
The target is the same in data set [5]. Description: fluorescence cross-correlation spectroscopy. The source holds these as a separate data set.
Data set [6] shares this target. The data set can be described thus: fluorescence cross-correlation spectroscopy. The source holds these as a separate data set.

Chain of SRC-1 (Homo sapiens) (Q15788 2-1441): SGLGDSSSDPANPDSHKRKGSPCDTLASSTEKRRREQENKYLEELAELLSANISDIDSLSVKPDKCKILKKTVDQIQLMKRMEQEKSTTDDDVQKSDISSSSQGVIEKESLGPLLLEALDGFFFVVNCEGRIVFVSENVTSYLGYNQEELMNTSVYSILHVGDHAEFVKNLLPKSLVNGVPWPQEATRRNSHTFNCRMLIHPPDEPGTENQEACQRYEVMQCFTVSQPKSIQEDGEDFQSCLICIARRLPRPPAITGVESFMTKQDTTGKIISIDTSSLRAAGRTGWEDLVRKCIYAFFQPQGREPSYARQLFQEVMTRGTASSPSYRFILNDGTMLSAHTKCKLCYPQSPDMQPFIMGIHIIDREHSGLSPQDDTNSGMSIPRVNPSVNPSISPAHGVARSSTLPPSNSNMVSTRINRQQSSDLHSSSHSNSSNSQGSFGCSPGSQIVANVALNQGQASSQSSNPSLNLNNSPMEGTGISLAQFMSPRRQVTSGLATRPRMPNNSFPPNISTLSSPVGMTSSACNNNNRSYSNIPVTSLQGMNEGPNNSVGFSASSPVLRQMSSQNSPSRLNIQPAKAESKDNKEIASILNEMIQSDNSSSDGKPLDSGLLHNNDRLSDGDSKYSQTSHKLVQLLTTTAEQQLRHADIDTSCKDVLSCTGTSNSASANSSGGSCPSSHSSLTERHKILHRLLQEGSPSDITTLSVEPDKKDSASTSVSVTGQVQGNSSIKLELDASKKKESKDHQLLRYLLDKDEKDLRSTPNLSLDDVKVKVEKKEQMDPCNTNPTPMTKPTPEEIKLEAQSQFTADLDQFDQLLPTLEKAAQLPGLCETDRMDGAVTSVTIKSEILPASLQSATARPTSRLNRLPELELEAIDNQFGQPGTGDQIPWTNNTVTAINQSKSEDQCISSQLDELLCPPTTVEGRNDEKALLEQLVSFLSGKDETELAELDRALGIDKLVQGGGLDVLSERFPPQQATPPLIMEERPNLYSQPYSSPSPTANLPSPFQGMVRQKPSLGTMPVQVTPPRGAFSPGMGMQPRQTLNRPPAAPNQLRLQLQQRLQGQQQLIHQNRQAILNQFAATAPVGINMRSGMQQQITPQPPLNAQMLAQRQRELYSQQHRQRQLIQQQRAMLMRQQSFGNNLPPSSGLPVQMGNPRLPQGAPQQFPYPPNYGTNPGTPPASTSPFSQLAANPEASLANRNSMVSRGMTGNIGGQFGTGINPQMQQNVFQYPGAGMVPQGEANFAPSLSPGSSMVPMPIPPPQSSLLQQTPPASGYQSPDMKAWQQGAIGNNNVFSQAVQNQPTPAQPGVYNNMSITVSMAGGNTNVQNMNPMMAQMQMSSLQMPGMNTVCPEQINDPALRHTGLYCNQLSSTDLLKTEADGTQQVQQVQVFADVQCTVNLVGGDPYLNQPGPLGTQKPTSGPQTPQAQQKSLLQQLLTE
Chain of SRC-2 (Homo sapiens) (Q15596 2-1464): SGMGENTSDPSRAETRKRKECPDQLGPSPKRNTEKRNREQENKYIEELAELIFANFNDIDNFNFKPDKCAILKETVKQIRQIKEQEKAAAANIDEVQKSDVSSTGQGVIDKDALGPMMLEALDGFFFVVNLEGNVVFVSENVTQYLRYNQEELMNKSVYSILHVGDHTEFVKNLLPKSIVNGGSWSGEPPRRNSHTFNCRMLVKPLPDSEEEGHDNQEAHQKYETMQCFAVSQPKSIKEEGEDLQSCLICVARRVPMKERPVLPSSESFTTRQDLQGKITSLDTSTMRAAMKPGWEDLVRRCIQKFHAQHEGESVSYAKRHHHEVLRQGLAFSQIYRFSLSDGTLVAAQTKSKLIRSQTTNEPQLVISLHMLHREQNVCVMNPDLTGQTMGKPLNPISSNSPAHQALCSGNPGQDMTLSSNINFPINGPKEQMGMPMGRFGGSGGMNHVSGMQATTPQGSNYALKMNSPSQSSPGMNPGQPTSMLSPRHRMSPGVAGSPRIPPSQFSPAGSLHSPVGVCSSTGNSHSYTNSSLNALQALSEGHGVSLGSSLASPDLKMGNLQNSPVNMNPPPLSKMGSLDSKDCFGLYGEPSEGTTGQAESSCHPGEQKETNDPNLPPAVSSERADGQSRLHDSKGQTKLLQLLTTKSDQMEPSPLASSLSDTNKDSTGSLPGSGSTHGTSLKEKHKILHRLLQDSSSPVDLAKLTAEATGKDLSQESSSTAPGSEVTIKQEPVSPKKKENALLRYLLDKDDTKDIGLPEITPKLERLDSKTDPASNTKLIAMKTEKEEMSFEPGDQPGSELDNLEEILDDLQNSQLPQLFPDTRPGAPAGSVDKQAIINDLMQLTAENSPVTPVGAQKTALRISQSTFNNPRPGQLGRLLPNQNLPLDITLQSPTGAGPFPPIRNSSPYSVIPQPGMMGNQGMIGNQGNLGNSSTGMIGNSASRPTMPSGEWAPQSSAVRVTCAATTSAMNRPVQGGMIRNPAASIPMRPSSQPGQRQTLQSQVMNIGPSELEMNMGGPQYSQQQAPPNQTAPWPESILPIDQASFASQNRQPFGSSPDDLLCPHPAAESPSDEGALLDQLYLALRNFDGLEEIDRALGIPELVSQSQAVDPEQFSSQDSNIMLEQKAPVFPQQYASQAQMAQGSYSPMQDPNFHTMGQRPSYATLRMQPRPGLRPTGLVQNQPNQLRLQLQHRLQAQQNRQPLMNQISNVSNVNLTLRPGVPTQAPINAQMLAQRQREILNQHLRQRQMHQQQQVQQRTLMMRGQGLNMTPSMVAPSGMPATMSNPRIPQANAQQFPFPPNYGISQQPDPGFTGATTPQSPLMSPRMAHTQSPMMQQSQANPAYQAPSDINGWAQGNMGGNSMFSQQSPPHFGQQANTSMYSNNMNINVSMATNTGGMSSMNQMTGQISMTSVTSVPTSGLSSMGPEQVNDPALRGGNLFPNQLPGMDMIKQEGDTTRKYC
Chain of estrogen receptor (P03372 whole entry): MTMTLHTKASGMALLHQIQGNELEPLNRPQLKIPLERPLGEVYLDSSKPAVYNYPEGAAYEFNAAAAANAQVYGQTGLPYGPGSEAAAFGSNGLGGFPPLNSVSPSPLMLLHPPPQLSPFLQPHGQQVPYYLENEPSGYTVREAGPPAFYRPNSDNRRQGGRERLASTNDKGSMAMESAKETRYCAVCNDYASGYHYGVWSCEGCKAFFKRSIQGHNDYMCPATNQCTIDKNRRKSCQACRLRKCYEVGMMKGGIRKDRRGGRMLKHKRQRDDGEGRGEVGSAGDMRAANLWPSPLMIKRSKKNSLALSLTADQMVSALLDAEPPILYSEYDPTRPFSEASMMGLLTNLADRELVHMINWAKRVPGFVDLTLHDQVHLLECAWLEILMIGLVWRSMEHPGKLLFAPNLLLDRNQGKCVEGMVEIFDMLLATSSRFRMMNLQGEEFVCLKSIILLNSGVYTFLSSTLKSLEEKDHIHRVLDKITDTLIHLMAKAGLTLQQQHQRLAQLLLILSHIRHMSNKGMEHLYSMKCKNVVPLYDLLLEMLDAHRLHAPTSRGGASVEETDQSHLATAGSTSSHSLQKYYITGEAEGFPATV
Chain of PPARγ (from UniProt P37231) (P37231 whole entry): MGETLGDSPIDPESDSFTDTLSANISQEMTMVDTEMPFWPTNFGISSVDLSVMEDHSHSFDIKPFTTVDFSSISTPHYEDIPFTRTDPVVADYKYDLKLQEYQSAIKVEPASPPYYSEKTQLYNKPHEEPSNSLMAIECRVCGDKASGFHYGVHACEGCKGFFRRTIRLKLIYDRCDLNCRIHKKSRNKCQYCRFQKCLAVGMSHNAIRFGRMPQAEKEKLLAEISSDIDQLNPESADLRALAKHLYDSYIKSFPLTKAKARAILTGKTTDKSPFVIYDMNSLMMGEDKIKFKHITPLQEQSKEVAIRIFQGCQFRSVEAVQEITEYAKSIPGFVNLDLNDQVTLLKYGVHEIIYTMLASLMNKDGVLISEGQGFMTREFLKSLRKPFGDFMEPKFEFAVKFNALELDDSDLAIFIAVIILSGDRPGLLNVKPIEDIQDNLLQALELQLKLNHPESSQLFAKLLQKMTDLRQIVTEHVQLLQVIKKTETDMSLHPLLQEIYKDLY
Chain of estrogen receptor LBD (P03372 311-547): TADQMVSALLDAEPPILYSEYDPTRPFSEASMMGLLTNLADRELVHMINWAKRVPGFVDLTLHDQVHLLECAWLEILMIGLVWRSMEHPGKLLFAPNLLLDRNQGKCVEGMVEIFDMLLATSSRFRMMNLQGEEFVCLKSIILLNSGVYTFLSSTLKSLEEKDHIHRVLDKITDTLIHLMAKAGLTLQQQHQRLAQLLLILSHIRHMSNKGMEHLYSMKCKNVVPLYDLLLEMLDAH

For the compound PPARγ (from UniProt P37231), the Kd (commonly the concentration at which binding is half-saturated) with SRC-1 (Homo sapiens) [1] is 34200 nM; with SRC-1 (Homo sapiens) [2], 960 nM.
As for estrogen receptor (from UniProt P03372), the dissociation constant Kd with SRC-1 (Homo sapiens) [3] was 30 nM; in the data set with SRC-2 (Homo sapiens) [4], below 6 nM; in the data set with SRC-2 (Homo sapiens) [5], 200 nM; in the data set with SRC-2 (Homo sapiens) [6], above 3000 nM.
In the case of `COc1ccc2c(c1)c(CC(=O)O)c(C)n2C(=O)c1ccc(Cl)cc1` [IDM, indomethacin], in the data set with PPARγ, the “increase in the affinity of PPARγ for SRC-1” value was 30 fold.
Take “estrogen receptor LBD (from UniProt P03372)”: the Kd with SRC-1 (Homo sapiens) [3] was 30 nM.
